Laboratory results from the RNAGym collection of RNA variant scans (doi:10.7554/elife.80360).

B1: HDV Ribozyme (parent)
chain: GGCCGGCAUGGUCCCAGCCUCCUCGCUGGCGCCGGCUGGGCAACAUUCCGAGGGGACCGUCCCCUCGGUAAUGGCGAAUGGGACCCA

Variants of: B1
Experiment: self-cleavage, relative activity (ratio to wild type); higher = more cleavage; co-transcriptional

Row | Variant | self-cleavage
1 | GGCCGGCAUGGUCCCAGCCUCCUCGCAGGCGCCGGCUGGGCAACAUUCCGCGGGGACCGUCCCCUCGGUAAUGGCGAAUGGGACCCA | 0.86
2 | GGCCGGCAUGGUCCCAGCCUCCUCGCAGGCGCCGGCUGGGCAACAUUCCGAGGGGACCGUUCCCUCGGUAAUGGCGAAUGGGACCCA | 0.997
3 | GGCCGGCAUGGUCCCAGCCUCCUCGCAGGCGCCGGCUGGGCAACAUUCCGAGGGGACCGUGCCCUCGGUAAUGGCGAAUGGGACCCA | 0.504
4 | GGCCGGCAUGGUCCCAGCCUCCUCGUUGGCGCCGGCUGGGCAACAUUCCGAGGGGACCGUCCCCUCGGUAAUAGCGAAUGGGACCCA | 0.747
5 | GGCCGGCAUGGUCCCAGCCUCCUCGUUGGCGCCGGCUGGGCAACAUCCCGAGGGGACCGUCCCCUCGGUAAUGGCGAAUGGGACCCA | 1.02
6 | GGCCGGCAUGGUCCCAGCCUCCUCGUUGGCGCCGGCUGGGCAACAUUCCGAGGGGACCGUCCCCUCGGUAAUGGCGAAGGGGACCCA | 1.03
7 | GGCCGGCAUGGUCCCAGCCUCCUCGUUGGCGCCGGCUGGGCAACAUUCCGAGGGGACCGUCCCCUCGGUAAUGGCGAAAGGGACCCA | 1.04
8 | GGCCGGCAUGGUCCCAGCCUCCUCGCAGGCGCCGGCUGGGCAACAUUCCGAGGGGGCCGUCCCCUCGGUAAUGGCGAAUGGGACCCA | 1.08
9 | GGCCGGCAUGGUCCCAGCCUCCUCGUUGGCGCCGGCUGGGCAACAUUCCGAGGGGACCGUCCCCUCGGUAAUGUCGAAUGGGACCCA | 0.777
10 | GGCCGGCAUGGUCCCAGCCUCCUCGCAGGCGCCGGCUGGGCAACAUUCCGAGGGGACCGUCCCCUCGGUCAUGGCGAAUGGGACCCA | 0.782
11 | GGCCGGCAUGGUCCCAGCCUCCUCGUUGGCGCCGGCUGGGCAACAUUCCGAGGGGACCGUCCCCUCGGGAAUGGCGAAUGGGACCCA | 0.96
12 | GGCCGGCAUGGUCCCAGCCUCCUCGCAGGCGCCGGCUGGGCAAAAUUCCGAGGGGACCGUCCCCUCGGUAAUGGCGAAUGGGACCCA | 0.369
13 | GGCCGGCAUGGUCCCAGCCUCCUCGCAGGCGCCGGCUGGGCAAGAUUCCGAGGGGACCGUCCCCUCGGUAAUGGCGAAUGGGACCCA | 0.289
14 | GGCCGGCAUGGUCCCAGCCUCCUCGCAGGGGCCGGCUGGGCAACAUUCCGAGGGGACCGUCCCCUCGGUAAUGGCGAAUGGGACCCA | 0.166
15 | GGCCGGCAUGGUCCCAGCCUCCUCGUUGGCGCCGGCUGGGCAACAUUCCGAGGGGACCGACCCCUCGGUAAUGGCGAAUGGGACCCA | 1.05
16 | GGCCGGCAUGGUCCCAGCCUCCUCGUUGGCGCCGGCUGGGCAACAUUCCGAGGGGACCGGCCCCUCGGUAAUGGCGAAUGGGACCCA | 0.831

Row | Variant | self-cleavage
17 | GGCCGGCAUGGUCCCAGCCUCCUCGCAGGCGCCGGCUGGGUAACAUUCCGAGGGGACCGUCCCCUCGGUAAUGGCGAAUGGGACCCA | 1.07
18 | GGCCGGCAUGGUCCCAGCCUCCUCGCAGGCGCCGGCUGGGCAACAUUCCGAGGGGAACGUCCCCUCGGUAAUGGCGAAUGGGACCCA | 0.855
19 | GGCCGGCAUGGUCCCAGCCUCCUCGUUGGCGCCGGCUGGGCAACAUUCCGAGGGGACCGUCCCCUCGGUAAUGGCGAAUUGGACCCA | 0.433
20 | GGCCGGCAUGGUCCCAGCCUCCUCGUUGGCGCCGGCUGGGCAACAUUCCGAGGGGACCGUCCCCUCGGUAAUGGCGAAUGGCACCCA | 0.431
21 | GGCCGGCAUGGUCCCAGCCUCCUCGCAGGCGCCGGCUGGGCAACAUUCCGAGGGGACCGUCCCCUCGGUAAUGGCGAAUGGGACCCU | 0.602
22 | GGCCGGCAUGGUCCCAGCCUCCUCGCAGGCGCCGGCUGGGCAACAUUCCGAGGGGACCGUCCCCUCGGUAAUGGCGAAUGGGACCCG | 0.847
23 | GGCCGGCAUGGUCCCAGCCUCCUCGCAGGCGCCGGCUGGGCAACAUUCCGAGGGGACCGUCCCCUCGGUAAUGGCGAGUGGGACCCA | 0.249
24 | GGCCGGCAUGGUCCCAGCCUCCUCGCAGGCGCCGGCUGGGCAACAUUCCGAGGGGACCGUCCCCUCGGUAAUGGCGACUGGGACCCA | 0.0573
25 | GGCCGGCAUGGUCCCAGCCUCCUCGCAGGCGCCGGCUGGGCAACAUUCGGAGGGGACCGUCCCCUCGGUAAUGGCGAAUGGGACCCA | 0.617
26 | GGCCGGCAUGGUCCCAGCCUCCUCGUAGGCGCCGGCUGGGCAACAUUCCGAGGGGACCGUCCCCUCGGUAAUGGCGAAUGGGACCCA | 0.886
27 | GGCCGGCAUGGUCCCAGCCUCCUCGUUGGCGCCGGCUGGGCAACAUUCCGAGGGGACCGUCCCCUCGGUAAUGGCGAAUGUGACCCA | 0.439
28 | GGCCGGCAUGGUCCCAGCCUCCUCGUUGGCGCCGGCUGGGCAACAUUCCGAGGGGACCGUCCCCUCGGUAAUGGCGAAUGAGACCCA | 0.888
29 | GGCCGGCAUGGUCCCAGCCUCCUCGCAGGCGCUGGCUGGGCAACAUUCCGAGGGGACCGUCCCCUCGGUAAUGGCGAAUGGGACCCA | 1.01
30 | GGCCGGCAUGGUCCCAGCCUCCUCGCAGGCGCAGGCUGGGCAACAUUCCGAGGGGACCGUCCCCUCGGUAAUGGCGAAUGGGACCCA | 0.256
31 | GGCCGGCAUGGUCCCAGCCUCCUCGUUGGCGCCGGCUGGGCAACAAUCCGAGGGGACCGUCCCCUCGGUAAUGGCGAAUGGGACCCA | 0.731
32 | GGCCGGCAUGGUCCCAGCCUCCUCGUUGGCGCCGGCUGGGCAACAGUCCGAGGGGACCGUCCCCUCGGUAAUGGCGAAUGGGACCCA | 0.787
